Experimental data as given in publication doi:10.1101/2022.10.10.511565.

Target: Lon-His (C. crescentus) (UniProt B8GX12)
UniProt B8GX12, sequence (B8GX12 whole entry): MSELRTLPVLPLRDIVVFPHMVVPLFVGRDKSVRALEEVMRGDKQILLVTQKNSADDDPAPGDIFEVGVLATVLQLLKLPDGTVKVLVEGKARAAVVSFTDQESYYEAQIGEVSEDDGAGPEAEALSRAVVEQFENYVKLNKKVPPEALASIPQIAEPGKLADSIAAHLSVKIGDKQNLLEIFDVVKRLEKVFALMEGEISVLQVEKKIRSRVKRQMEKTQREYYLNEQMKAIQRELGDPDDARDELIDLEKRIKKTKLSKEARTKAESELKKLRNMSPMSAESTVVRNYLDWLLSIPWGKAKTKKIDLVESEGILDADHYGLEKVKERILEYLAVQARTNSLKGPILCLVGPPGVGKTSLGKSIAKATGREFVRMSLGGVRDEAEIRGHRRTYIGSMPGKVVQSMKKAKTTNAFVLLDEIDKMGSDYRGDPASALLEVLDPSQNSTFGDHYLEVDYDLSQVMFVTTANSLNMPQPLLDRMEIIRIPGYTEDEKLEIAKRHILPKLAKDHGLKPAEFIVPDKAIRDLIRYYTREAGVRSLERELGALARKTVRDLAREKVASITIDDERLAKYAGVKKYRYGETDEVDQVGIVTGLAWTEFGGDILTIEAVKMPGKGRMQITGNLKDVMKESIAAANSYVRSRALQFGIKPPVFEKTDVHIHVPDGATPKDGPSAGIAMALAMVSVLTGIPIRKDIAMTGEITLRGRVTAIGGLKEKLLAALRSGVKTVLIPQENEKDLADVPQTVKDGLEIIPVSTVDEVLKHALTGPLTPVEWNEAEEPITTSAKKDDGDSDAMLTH

His-SciP (natural protein)
Km of His-SciP degradation by Lon-His (0.05 µM hexamer), without LarA: 9.3 µM
